From US20230045151A1, “COMPOSITIONS AND METHODS” (MONASH UNIVERSITY, priority 2020, published 2023)

System: CCL20
Assay: In vitro stimulation of lung cells enriched for airway epithelial cells, chemokine release
Assay type: cell-based, mouse
Conditions: LPS 10 μg/ml, 24 hours; EGF 100 ng/ml, amphiregulin 500 ng/ml or gefitinib 0.16 μM; lower efficacy than PCS
Protocol: Mice were euthanized by CO2 inhalation, instilled with a 1.5 ml dispase II (Sigma-Aldrich) intratracheally, followed by intratracheal injection of 0.5 ml 1% low melting point agarose (Sigma-Aldrich). Lungs were then covered with ice for 3 min, removed and placed in a 15 ml falcon tube with 2 ml of dispase II, and incubated for 45 min with gentle agitation. This was followed by mechanical disruption of the lung lobes using forceps in DMEM supplemented with DNAse I (Sigma-Aldrich, 1U/ml), filtration through 70- and 40-μM cell strainers (Falcon®, Corning) and lysis of erythrocytes using red blood cell lysing buffer (BD Biosciences). Lung cells were plated in a flat-bottom 24-well or 96-well plates (Costar) coated with fibronectin (Sigma-Aldrich, 10 μg/ml) at the density of 1 mln or 0.2 mln cells/well, respectively.
5% CO2, after which the supernatant was collected and stored at −20° C. until further use.

B1: amphiregulin: low affinity EGFR ligand (protein, UniProt P15514 101-187, looked up)
Amphiregulin: SVRVEQVVKPPQNKTESENTSDKPKRKKKGGKNGKNRRNRKKKNPCNAEFQNFCIHGECKYIEHLEAVTCKCQQEYFGERCGEKSMK
modifications: Amphiregulin
- CCL20 production by lung cells stimulated with LPS: selective reduction
